In publication doi:10.1101/698563 (bioRxiv, 2019):

Target: human carcinoembryonic antigen (CEA) (Homo sapiens, UniProt P06731)
Experiment: flow cytometry on cells

Chain of human carcinoembryonic antigen (CEA) (P06731 35-685): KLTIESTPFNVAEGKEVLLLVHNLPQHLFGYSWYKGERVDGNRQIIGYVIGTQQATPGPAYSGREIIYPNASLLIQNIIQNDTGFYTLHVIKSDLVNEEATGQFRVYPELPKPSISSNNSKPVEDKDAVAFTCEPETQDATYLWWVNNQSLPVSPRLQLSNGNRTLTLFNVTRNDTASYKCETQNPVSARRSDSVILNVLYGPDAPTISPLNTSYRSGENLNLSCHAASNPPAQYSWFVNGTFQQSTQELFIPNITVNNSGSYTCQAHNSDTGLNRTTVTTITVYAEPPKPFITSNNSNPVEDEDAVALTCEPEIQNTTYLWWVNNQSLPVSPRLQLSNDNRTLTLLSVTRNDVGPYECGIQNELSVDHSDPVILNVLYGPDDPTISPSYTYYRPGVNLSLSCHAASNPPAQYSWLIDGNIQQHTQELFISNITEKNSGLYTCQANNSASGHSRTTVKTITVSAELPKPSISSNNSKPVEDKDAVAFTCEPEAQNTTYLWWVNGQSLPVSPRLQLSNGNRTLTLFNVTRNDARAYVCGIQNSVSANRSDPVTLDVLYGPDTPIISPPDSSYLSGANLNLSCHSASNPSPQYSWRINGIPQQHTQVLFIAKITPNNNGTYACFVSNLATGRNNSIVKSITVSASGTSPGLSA

B1: Sm3E-TNF (scFv, V domains shown)
VH: QVKLEQSGAEVVKPGASVKLSCKASGFNIKDSYMHWLRQGPGQRLEWIGWIDPENGDTEYAPKFQGKATFTTDTSANTAYLGLSSLRPEDTAVYYCNEGTPTGPYYFDYWGQGTLVTVSS
VL: ENVLTQSPSSMSVSVGDRVTIACSASSSVPYMHWLQQKPGKSPKLLIYLTSNLASGVPSRFSGSGSGTDYSLTISSVQPEDAATYYCQQRSSYPLTFGGGTKLEIK
binding result: binds
